From patent US20200407424A1 (FRAUNHOFER GESELLSCHAFT ZUR F RDERUNG DER ANGEWANDTEN …, published 2020) come the findings set out here.

Square brackets hold non-standard residues; d marks the D form. Ends that are not written are not given here. Cit = NC(=O)NCCC[C@H](N)C(=O)O

B1: citrullinated a-enolase peptide ref no 297 (peptide)
peptide: [Cit]YMGKGVSKAVEHIN
B2: citrullinated a-enolase peptide ref no 313 (peptide)
peptide: K[Cit]IAKAVNEKSCNCL
modifications: cysteine pairing not given here
B3: citrullinated a-enolase peptide ref no 301 (peptide)
peptide: QEFMILPVGAANF[Cit]E
B4: citrullinated a-enolase peptide ref no 302 (peptide)
peptide: LPVGAANF[Cit]EAM[Cit]IG
B5: a-enolase peptide ref no 49 (peptide)
peptide: VIGMDVAASEFFRSG
B6: a-enolase peptide ref no 34 (peptide)
peptide: QEFMILPVGAANFRE
B7: citrullinated a-enolase peptide ref no 300 (peptide)
peptide: Y[Cit]HIADLAGNSEVIL
B8: citrullinated a-enolase peptide ref no 289 (peptide)
peptide: IFDS[Cit]GNPTVEVDLF
B9: citrullinated a-enolase peptide ref no 305 (peptide)
peptide: VIGMDVAASEFF[Cit]SG
B10: citrullinated a-enolase peptide ref no 292 (peptide)
peptide: F[Cit]AAVPSGASTGIYE
B11: citrullinated a-enolase peptide ref no 287 (peptide)
peptide: MSILKIHA[Cit]EIFDS[Cit]
B12: citrullinated vimentin peptide ref no 156 (peptide)
peptide: XEYQDLLNVKMALDI
modifications: citrulline (Xaa) at 1
B13: vimentin peptide ref no 27 (peptide)
peptide: LLAELEQLKGQGKSR
B14: vimentin peptide ref no 42 (peptide)
peptide: FRQDVDNASLARLDL
B15: citrullinated vimentin peptide ref no 132 (peptide)
peptide: F[Cit]QDVDNASLA[Cit]LDL
B16: vimentin peptide ref no 32 (peptide)
peptide: ELRRQVDQLTNDKAR
B17: vimentin peptide ref no 13 (peptide)
peptide: YATRSSAVRLRSSVP
B18: citrullinated vimentin peptide ref no 93 (peptide)
peptide: MST[Cit]SVSSSSY[Cit][Cit]MF
B19: citrullinated vimentin peptide ref no 99 (peptide)
peptide: VTTST[Cit]TYSLGSAL[Cit]
B20: vimentin peptide ref no 79 (peptide)
peptide: MALDIEIATYRKLLE
B21: citrullinated vimentin peptide ref no 95 (peptide)
peptide: Y[Cit][Cit]MFGGPGTAS[Cit]PS
B22: vimentin peptide ref no 16 (peptide)
peptide: GVRLLQDSVDFSLAD
B23: vimentin peptide ref no 55 (peptide)
peptide: DVRQQYESVAAKNLQ
B24: citrullinated vimentin peptide ref no 159 (peptide)
peptide: XKLLEGEESXISLPL
modifications: citrulline (Xaa) at 1, 10
B25: citrullinated vimentin peptide ref no 145 (peptide)
peptide: STEY[Cit][Cit]QVQSLTCEV
B26: vimentin peptide ref no 20 (peptide)
peptide: FKNTRTNEKVELQEL
B27: citrullinated vimentin peptide ref no 150 (peptide)
peptide: FAVEAANYQDTIG[Cit]L
B28: vimentin peptide ref no 71 (peptide)
peptide: FAVEAANYQDTIGRL
B29: vimentin peptide ref no 59 (peptide)
peptide: YKSKFADLSEAANRN
B30: vimentin peptide ref no 44 (peptide)
peptide: ARLDLERKVESLQEE
B31: vimentin peptide ref no 14 (peptide)
peptide: SAVRLRSSVPGVRLL
B32: vimentin peptide ref no 92 (peptide)
peptide: GQVINETSQHHDDLE
B33: corresponding non-citrullinated peptide of a-enolase peptide 300 (peptide)
peptide: YRHIADLAGNSEVIL
B34: corresponding non-citrullinated peptide of a-enolase peptide 302 (peptide)
peptide: LPVGAANFREAMRIG
B35: corresponding non-citrullinated peptide of a-enolase peptide 324 (peptide)
peptide: KAKFAGRNFRNPLAK
B36: corresponding non-citrullinated peptide of a-enolase peptide 292 (peptide)
peptide: FRAAVPSGASTGIYE

The first assay has as its target T1, recombinant MHC class II protein of the HLA DRB1 0101 genotype (human).
T1 construct: construct not described
In words: in vitro binding assay.
On to B1, for which the binding result is “no binding”.
B2: the binding result was “binds”.
Turning to B3, the binding result is on record as “no binding”.
Same read-out and setting: in the case of B4 it was “no binding”.
The same measure, in the same setting: in the case of B5 it was “no binding”; in that of B6, “binds”.
Consider B7, for which the binding result was “no binding”.
Still for that read-out and setting: in the case of B8 it was “no binding”.
On to B9, for which the binding result was “no binding”.
The same measure, in the same setting: under B10 stands “binds”; under B11, “binds”.

A further assay addresses T2, recombinant MHC class II protein of the HLA DRB1 0404 genotype (human).
T2 construct: construct not described
In words: in vitro binding assay.
As to B1, the binding result is reported as “no binding”.
Still for that read-out and setting: in the case of B2 it was “binds”; in that of B3, “binds”; in that of B4, “binds”.
On the same count and under the same terms, under B5 stands “binds”.
On the same count and under the same terms, in the case of B6 it was “binds”.
Turning to B7, the binding result is recorded as “no binding”.
Same read-out and setting: under B8 stands “no binding”.
Still for that read-out and setting: in the case of B9 it was “no binding”.
On the same count and under the same terms, in the case of B10 it was “binds”; in that of B11, “binds”.

A further assay has as its target T3, recombinant MHC class II protein of the HLA DRB1 0405 genotype (human).
T3 construct: construct not described
The assay can be described thus: in vitro binding assay.
Turning to B1, the binding result is listed as “binds”.
Take B2: the binding result was “binds”.
The same measure, in the same setting: in the case of B3 it was “binds”.
For the molecule B4, the binding result is recorded as “binds”.
B5: the binding result is recorded as “binds”.
On the same count and under the same terms, under B6 stands “binds”.
In the case of B7, the binding result is given as “binds”.
On the same count and under the same terms, in the case of B8 it was “binds”.
Same read-out and setting: in the case of B9 it was “binds”.
On the same count and under the same terms, in the case of B10 it was “binds”; in that of B11, “binds”.

A further assay addresses T4, recombinant MHC class II protein of the HLA DRB1 0408 genotype (human).
T4 construct: construct not described
In words: in vitro binding assay.
On to B1, for which the binding result is listed as “no binding”.
On the same count and under the same terms, in the case of B2 it was “no binding”; in that of B3, “no binding”; in that of B4, “no binding”.
Take B5: the binding result is reported as “binds”.
The same measure, in the same setting: under B6 stands “no binding”.
On to B7, for which the binding result is on record as “no binding”.
B8: the binding result was “no binding”.
Still for that read-out and setting: in the case of B9 it was “no binding”.
The same measure, in the same setting: under B10 stands “no binding”; under B11, “no binding”.

The next assay addresses T5, recombinant MHC class II protein of the HLA DRB1 1001 genotype (human).
T5 construct: construct not described
In words: in vitro binding assay.
Consider B1, for which the binding result is recorded as “no binding”.
The same measure, in the same setting: under B2 stands “no binding”.
As for B3, the binding result is on record as “no binding”.
The same measure, in the same setting: under B4 stands “no binding”; under B5, “no binding”.
Still for that read-out and setting: in the case of B6 it was “no binding”.
As for B7, the binding result is reported as “no binding”.
The same measure, in the same setting: under B8 stands “no binding”; under B9, “no binding”; under B10, “no binding”.
Still for that read-out and setting: in the case of B11 it was “binds”.

A further assay concerns the target T1, recombinant MHC class II protein of the …. The assay can be described thus: in vitro binding assay. The source holds these as a separate data set.
Regarding B12, the binding result is listed as “binds”.
As for B13, the binding result is on record as “binds”.
For the molecule B14, the binding result is “binds”.
On the same count and under the same terms, in the case of B15 it was “binds”.
On the same count and under the same terms, in the case of B16 it was “binds”.
On the same count and under the same terms, in the case of B17 it was “binds”; in that of B18, “no binding”; in that of B19, “binds”.
In the case of B20, the binding result was “binds”.
With B21, the binding result is recorded as “binds”.
For the molecule B22, the binding result is “no binding”.
On the same count and under the same terms, in the case of B23 it was “binds”.

For a further assay, the target named is T6, recombinant MHC class II protein of the HLA DRB1 0401 genotype (human).
T6 construct: construct not described; also called HLA-DR0401
The assay can be described thus: in vitro binding assay.
In the case of B24, the binding result is given as “binds”.
The same measure, in the same setting: in the case of B14 it was “binds”.
Same read-out and setting: in the case of B25 it was “binds”; in that of B26, “binds”; in that of B27, “binds”.
Still for that read-out and setting: under B17 stands “no binding”.
For the molecule B18, the binding result was “binds”.
The same measure, in the same setting: in the case of B28 it was “binds”.
Consider B19, for which the binding result is “binds”.
With B20, the binding result is “no binding”.
Same read-out and setting: in the case of B21 it was “binds”; in that of B22, “binds”.
On to B29, for which the binding result is “binds”.
On the same count and under the same terms, under B23 stands “binds”.

The target in another assay is T2, recombinant MHC class II protein of the …. In words: in vitro binding assay. This is another data set of the same source.
With B30, the binding result is on record as “binds”.
On the same count and under the same terms, in the case of B13 it was “no binding”; in that of B24, “no binding”; in that of B14, “no binding”.
As to B16, the binding result is recorded as “binds”.
B31: the binding result is listed as “binds”.
With B18, the binding result is on record as “binds”.
For the molecule B20, the binding result is recorded as “binds”.
Same read-out and setting: in the case of B32 it was “binds”.

The target in a further assay is T6, recombinant MHC class II protein of the …. The assay can be described thus: in vitro binding assay. This is another data set of the same source.
B1: the binding result was “binds”.
Same read-out and setting: under B33 stands “no binding”; under B2, “binds”; under B3, “binds”.
Same read-out and setting: in the case of B4 it was “binds”; in that of B7, “binds”; in that of B8, “binds”.
For the molecule B9, the binding result is “binds”.
Still for that read-out and setting: under B10 stands “binds”.
On the same count and under the same terms, in the case of B34 it was “no binding”.
Consider B35, for which the binding result is listed as “no binding”.
On the same count and under the same terms, in the case of B11 it was “binds”; in that of B36, “no binding”.
